From paper PMC6356969, “Cytosolic Isocitrate Dehydrogenase from Arabidopsis thaliana Is Regulated by Glutathionylation” (Antioxidants, 2019)

Columns and labels:
[1] = biological target: T1, cICDH (cytosolic NADP-ICDH, At1g65930) (Arabidopsis thaliana, UniProt Q9SRZ6, C363S); assay: residual activity after preincubation, NADPH at […] nm; assay type: biochemical; details: 1 mM GSNO preincubation, 25 °C; covalent
T1 construct: ~90 kDa non-covalent dimer

[2] = biological target: T2, cICDH (cytosolic NADP-ICDH, At1g65930) (Arabidopsis thaliana, UniProt Q9SRZ6); assay: residual activity after preincubation; LC-MS/MS of glutathionylated peptide; biotin switch; assay type: biochemical; details: 15 min at 25 °C before assay; covalent, S-glutathionylation of Cys363 and S-nitrosylation
T2 construct: ~90 kDa non-covalent dimer

[3] = biological target: the molecule itself; assay: SEC; Superose 12 column, ~10 ug His-ICDH, 50 mM Tris pH 7.5, 5 mM MgCl2, 150 mM NaCl; standards aldolase 158 kDa, conalbumin 75 kDa, ovalbumin 43 kDa; eluted at ~90 kDa against a 48.3 kDa monomer
purified protein [4] = substrate: NC(=O)c1ccc[n+]([C@@H]2O[C@H](COP(=O)(O)OP(=O)(O)OC[C@H]3O[C@@H](n4cnc5c(N)ncnc54)[C@H](OP(=O)(O)O)[C@@H]3O)[C@@H](O)[C@H]2O)c1; assay: purified protein; assay type: biochemical, Arabidopsis thaliana; details: NADP+ varied 0-1 mM, DL-isocitric acid as co-substrate, 5 mM MgCl2, 100 mM potassium phosphate pH 7.5, 25 °C
purified protein [5] = substrate: O=C(O)CC(C(=O)O)C(O)C(=O)O; assay: purified protein; assay type: biochemical, Arabidopsis thaliana; details: 250 µM NADP+, 5 mM MgCl2, 100 mM potassium phosphate pH 7.5, 25 °C, DL-isocitric acid varied 0-5 mM
[6] = Table 1 labels the mutant C297S, text and methods say C363S

Q: `N[C@@H](CCC(=O)N[C@@H](CSN=O)C(=O)NCC(=O)O)C(=O)O` [GSNO] was tested. Which “activity after 1 mM GSNO” value [1] did it give?
A: The value was “cICDH C363S was found to be less affected by GSNO treatment than the wild-type enzyme”.

Q: And the “activity at increasing GSNO” value [2]?
A: The value was “both increasing concentrations of GSNO and GSSG progressively inhibited the cICDH activity”.

B1: cytosolic NADP-dependent isocitrate dehydrogenase (cICDH), recombinant His-tagged (enzyme, Arabidopsis thaliana, UniProt Q9SRZ6 1-410, looked up)
chain: MAFEKIKVANPIVEMDGDEMTRVIWKSIKDKLITPFVELDIKYFDLGLPHRDATDDKVTIESAEATKKYNVAIKCATITPDEGRVTEFGLKQMWRSPNGTIRNILNGTVFREPIICKNVPKLVPGWTKPICIGRHAFGDQYRATDAVIKGPGKLTMTFEGKDGKTETEVFTFTGEGGVAMAMYNTDESIRAFADASMNTAYEKKWPLYLSTKNTILKKYDGRFKDIFQEVYEASWKSKYDAAGIWYEHRLIDDMVAYALKSEGGYVWACKNYDGDVQSDFLAQGFGSLGLMTSVLVCPDGKTIEAEAAHGTVTRHFRVHQKGGETSTNSIASIFAWTRGLAHRAKLDDNAKLLDFTEKLEAACVGTVESGKMTKDLALIIHGSKLSRDTYLNTEEFIDAVAAELKERLNA
notes: cytosolic NADP-dependent isocitrate dehydrogenase, Arabidopsis thaliana, At1g65930; predicted mass 48.3 kDa including the N-terminal His-tag; also called His-ICDH; His-cICDH; source: E. coli BL21, purified (Ni2+-Sepharose); not shown: His-tag, N-terminal, kept
Q: What does the source list for B1?
A: stoichiometry N [3]: 2; Km (purified protein [4]): 28 µM; kcat (purified protein [4]): 5.81 s⁻¹; Km (purified protein [5]): 99 µM; kcat (purified protein [5]): 4.93 s⁻¹; kcat/Km (purified protein [5]): 49700 M⁻¹ s⁻¹

B2: cICDH (cytosolic NADP-ICDH, At1g65930) (Arabidopsis thaliana; C363S) (protein)
chain: MAFEKIKVANPIVEMDGDEMTRVIWKSIKDKLITPFVELDIKYFDLGLPHRDATDDKVTIESAEATKKYNVAIKCATITPDEGRVTEFGLKQMWRSPNGTIRNILNGTVFREPIICKNVPKLVPGWTKPICIGRHAFGDQYRATDAVIKGPGKLTMTFEGKDGKTETEVFTFTGEGGVAMAMYNTDESIRAFADASMNTAYEKKWPLYLSTKNTILKKYDGRFKDIFQEVYEASWKSKYDAAGIWYEHRLIDDMVAYALKSEGGYVWACKNYDGDVQSDFLAQGFGSLGLMTSVLVCPDGKTIEAEAAHGTVTRHFRVHQKGGETSTNSIASIFAWTRGLAHRAKLDDNAKLLDFTEKLEAASVGTVESGKMTKDLALIIHGSKLSRDTYLNTEEFIDAVAAELKERLNA
notes: ~90 kDa non-covalent dimer
Q: How did the Km (purified protein [5]; [6]) turn out when B2 was run?
A: Its Km is 95 µM.

Q: And the kcat (purified protein [5]; [6])?
A: Its kcat is 4.31 s⁻¹.
